A short description of this series: soluble on expression in E. coli; label from the status in PepcDB or PDB records.
In the case of “MKDNRITVTDIPNTNLKKITLKNDFLEVVLLNYGARLHQLLMPNKNNHWENILLSYDSYQDVLKDQSFFGATVGPVAGRIRNGHWQNGILEQNSDGHHIHGGSKGWSFQYWTVEPFEKKDIIGVAFHLTDTISGYPGPIEATITYQLEDNHLRMISTGRSKQETLFNPTNHAYFNLSGDGKLDILSHLLSLNCQGMLELDDNKLPTGRILPASELSIRFNELTPIETILQRYPTGLDDVFSLVGSDLRQPQLCLQEPTSGRKMTIATTNQSMVLFSTTGFEAPFSINGQAMHSNYGLAIEPQEYPDIVHHPQWGSILLPANKKQTYQTVYQFNLL”, the “soluble on expression in E. coli” value is recorded as “not soluble”.

Regarding “MKDNRYSPDWPQLALQKKQAVGWVCERCGVQCLKPGEGKGLLKEERYRLRMAVHHCDYDPSNNSPSNLMALCSPCHLHYHQRQRGNVTPGQLSLGFVYRSCLVCAQQLEHHHHHH”, the “soluble on expression in E. coli” value was “not soluble”.

Turning to “MKDSPFYQHYDLDLKDKPLGEGSFSICRKCVHKKSNQAFAVKIISKRMEANTQKEITALKLCEGHPNIVKLHEVFHDQLHTFLVMELLNGGELFERIKKKKHFSETEASYIMRKLVSAVSHMHDVGVVHRDLKPENLLFTDENDNLEIKIIDFGFARLKPPDNQPLKTPCFTLHYAAPELLNQNGYDESCDLWSLGVILYTMLSGQVPFQSHDRSLTCTSAVEIMKKIKKGDFSFEGEAWKNVSQEAKDLIQGLLTVDPNKRLKMSGLRYNEWLQDGSQLSSNPLMTPDILGSSGAAVHTCVKATFHAFNKYKREGFCLQNVDKA”, the “soluble on expression in E. coli” value is “soluble”.

With “MKDVTPARADYPWDGERDVIVIGSGCAGLSAALLAAKKSLDVVLCEKSSQVGGTTASAGGVMWIPNSREARAAGVDDSSEQVRVYLRALMGAYYRADLVDPYLKSAPLAAQAIQEDTQVRLKLMPAMSDYHASLPGGKAGGRSLEPERFDGRRLGADFELVRAPIKRLMLLGGLYIDKRRIDEFLNPFGSFRNFIGVIRTLARYAIDRTRFSRGTDIGAGNAFVASALLSLRERGVPIWLNSPMVSLVRNPQGGVAGVAICRDGKLQRIRARKGVILAAGGFPRNAALLEELAGGFPHDQSVGYEGNVGDTLQAARQAGAAIDADLASPCWWTPTSRNKEADGSMSTVLYGYLDRSRPGMIAVNAAGKRFVNDSDSYHDIVYAMFKDGVTPDSRFYLICDRRFVWKRGLGNLIKPYCLSLGRYVRSGYISTGRSIRELAAAIGIDPDALEVTVTRHNGFCETGVDLDFGKGGNPYNRMFGDPRVKPNPNLLAIRHAPFFALRIYPGTLGTILGLKATADAQVVGQDGEAIPGLYACGNDMSSVFRGFYPGAGATLGPGLVFAYRAIEHLARSSGGSAAQSALEHHHHHH”, the “soluble on expression in E. coli” value is listed as “not soluble”.

For “MKEESRAKTGRKPKSDPADYKYSFRLNAGENMRFEKLVTESEAKDKTRFIKKAIFGGTIKVVKIDKATMDYYIRLTEFHRQFQTIGNNYNQVVRAIRSNFGEKRAMSLLYKLEKMTLELMLLTKKVIALTEEYQKKWLQK”, the “soluble on expression in E. coli” value is listed as “not soluble”.

With “MKEIWLLAESESWDEAKEMLKDAIEIGFDGALVRRDFLERAEKLGRMKIVPIEDAVVKISSAEDQERALQREVVVLKFEDWKVIPLENIVAMKKSGKVIAAVDTIEDAKLALTTLERGADGIAVSGDRETLRKFYEVVKEEGERVELVRARVKEIRPLGVGERVCIDTVTLMTPGEGMLVGNQASFMFLVASESEESEYVASRPFRVNAGSVNAYLKVGDKTRYLAELKAGDEVEVVKFDGAVRKSYVGRVKIERRPLILIRAEVDGVEGSVILQNAETIKLVAPDGKHVSVAELKPGDEILVWLGKKARHFGVEVDEFIVER”, the “soluble on expression in E. coli” value is given as “not soluble”.

Regarding “MKEKISKKEYNALIRKTGEKHFDGEKEEYGDGTVGLWTYELRKYKLKPPVKVKYVTQEEFGEFKDATNQRLTKIENALVAQGEQIRAQGEQLSQLIKVVLLQGEQIKSQGEQIKSLEHHHHHH”, the “soluble on expression in E. coli” value is given as “not soluble”.

On to “MKEKVSMVSLGCPKNLVDAEVMLGCLAKDQYEITTDEHEADIIIVNTCSFIGDAKKESIDTILDLADRKHDGRCKLLVVTGCLPQRYQEELATELPEVDIFVGTADYPRIAEIIAEKRGVAEQLRYISDPNYIFDESLPRLKSSPAYTAYLKIAEGCSNCCSYCVIPSLRGALRSRPLDNLLMEARTLVATGTREINLIAQDITAWGRDLPGSPTLEELVRELAKIVGLRWIRLLYAYPDGITDGLIEIIKTEPKVCKYLDIPIQHISDPVLKRMNRRSTEPQIRALIAKIRAEIPEIALRTSLIVGFPGETEEDFRTLLHYVEETQFDRLGVFCYSREEGTPAAGMEDQVSERVKRDRYKKLMKVQARLSFKRNRRLIDTEEEVIVEGYSDETDLLLKGRSSRQAPDIDGQVYITAGNANVGDIVRLRITDSSDYDLIGEIVEELEHHHHHH”, for which the “soluble on expression in E. coli” value is “soluble”.

As to “MKERILQEIKTRVNRKSWELWFSSFDVKSIEGNKVVFSVGNLFIKEWLEKKYYSVLSKAVKVVLGNDATFEITYEAFEPHSSYSEPLVKKRAVLLTPLNPDYTFENFVVGPGNSFAYHAALEVAKHPGRYNPLFIYGGVGLGKTHLLQSIGNYVVQNEPDLRVMYITSEKFLNDLVDSMKEGKLNEFREKYRKKVDILLIDDVQFLIGKTGVQTELFHTFNELHDSGKQIVICSDREPQKLSEFQDRLVSRFQMGLVAKLEPPDEETRKSIARKMLEIEHGELPEEVLNFVAENVDDNLRRLRGAIIKLLVYKETTGKEVDLKEAILLLKDFIKPNRVKAMDPIDELIEIVAKVTGVPREEILSNSRNVKALTARRIGMYVAKNYLKSSLRTIAEKFNRSHPVVVDSVKKVKDSLLKGNKQLKALIDEVIGEISRRALSGLEHHHHHH”, the “soluble on expression in E. coli” value is reported as “soluble”.

With “MKEYKRPDMYDKLLPMERIHIEVFEPFNGEAIEGKYSYVLLCRDYRSSFMWLLPLKSTKFKHLIPVVSSLFLTFARVPIFVTSSTLDKDDLYDICEEIASKYGLRIGLGLKSSARFHTGGILCIQYALNSYKKECLADWGKCLRYGPYRFNRRRNKRTKRKPVQVLLSEVPGHNAKFETKRERVIENTYSRNMFKMAGGKGLIYLEDVNTFALANEADNSCNNNGILHNNNIGNDNFEEEVQKQFDLTEKNYIDEYDDLAHDSSEGEFEPNTLTPEEKPPHNVDEDRIESTGVAAPMQGTEEPEKGDQKESDGASQVDQSVEITRPETSYYQTLESPSTKRQKLDQQGNGDQTRDFGTSMEL”, the “soluble on expression in E. coli” value is recorded as “not soluble”.

As to “MKFLKNVLEEGSKLEEFNELELSPEDKELLEYLQQTKAKITVVGCGGAGNNTITRLKMEGIEGAKTVAINTDAQQLIRTKADKKILIGKKLTRGLGAGGNPKIGEEAAKESAEEIKAAIQDSDMVFITCGLGGGTGTGSAPVVAEISKKIGALTVAVVTLPFVMEGKVRMKNAMEGLERLKQHTDTLVVIPNEKLFEIVPNMPLKLAFKVADEVLINAVKGLVELITKDGLINVDFADVKAVMNNGGLAMIGIGESDSEKRAKEAVSMALNSPLLDVDIDGATGALIHVMGPEDLTLEEAREVVATVSSRLDPNATIIWGATIDENLENTVRVLLVITGVQSRIEFTDTGLKRKKLELTGIPKIGSHHHHHH”, the “soluble on expression in E. coli” value was “soluble”.

With “MKFNIRGENIEVTPALKEYVEKKLSKLERYFDTFPEIKVNLKVYSDKQRVEVTIPFTDLLLRAEETNSDMYAAIDLVVDKLERQIRKHKTKVNRKLREKGSMKTNFILPEAVAVLDEVEEDELELVRTKRFDLKPMDVEEAILQMDMLGHNFFVFTNADTNETNVVYGRKDGKYGLIETKLEHHHHHH”, the “soluble on expression in E. coli” value is recorded as “not soluble”.

On to “MKFNSMFSPIDIGPMKVPNRFVVSPMCNNYANTDGTLSDTSLAYYKERALGGFGLITFEATVVDVRAKGGANKACLYSDHQIASFKRVIDVCHDAGAKISVQLQHAGPEGNSKVSGYPLRAASAIASAAGRNTPEAISREELYELIELYGEAALRAKKAGADAVEVHCAHGYLVSSFLSARTNKRVDEFGGCFENRMRLPRLIIESIRKRVGHSIAILCRINSTDGVDGGLSVQDSATVAAYLEDCGLDGLHVSRSVHIRDEYMWAPTVLHAGFSSDLVTQIKRAVSIPVITVGRFTEPHYAELMVREGRADLVAFGRQSLADPETPNKAAAGKLDELLPCIACLQGCVANMYAGKPITCLVNPLLGRESEAYLPKTPSKKVVVVGGGVGGLYAGWMAGSRGHDVTVYEASDMIGGQMRLAAYPPGKGDLTNMVRSYIKKCEQFDVEIKTNTPVTLELIQEVAPDAVIIATGATPLVLPIPGIEDAGLIHAVDLLDGKEKCGQKVLVVGGGMVGSETAAFLGEAGHDVTVVELRDEVGADVISEHRKFLMHDFDEYKIKSVTNAKVTSFFEDGVTYSLADNKEQRIDGFDSVVLAMGSRAYNPLEEAIKAIVPETYVIGDAVRARRALDATKEALDAVLQL”, for which the “soluble on expression in E. coli” value is “not soluble”.

Consider “MKFPGKRKSKHYFPVNARDPLLQQFQPENETSAAWVVGIDQTLVDIEAKVDDEFIERYGLSAGHSLVIEDDVAEALYQELKQKNLITHQFAGGTIGNTMHNYSVLADDRSVLLGVMCSNIEIGSYAYRYLCNTSSRTDLNYLQGVDGPIGRCFTLIGESGERTFAISPGHMNQLRAESIPEDVIAGASALVLTSYLVRCKPGEPMPEATMKAIEYAKKYNVPVVLTLGTKFVIAENPQWWQQFLKDHVSILAMNEDEAEALTGESDPLLASDKALDWVDLVLCTAGPIGLYMAGFTEDEAKRKTQHPLLPGAIAEFNQYEFSRAMRHKDCQNPLRVYSHIAPYMGGPEKIMNTNGAGDGALAALLHDITANSYHRSNVPNSSKHKFTWLTYSSLAQVCKYANRVSYQVLNQHSPRLTRGLPEREDSLEESYWDR”, for which the “soluble on expression in E. coli” value is “not soluble”.

For “MKFPGPLENQRLSFLLEKAITREAQMWKVNVRKMPSNQNVSPSQRDEVIQWLAKLKYQFNLYPETFALASSLLDRFLATVKAHPKYLSCIAISCFFLAAKTVEEDERIPVLKVLARDSFCGCSSSEILRMERIILDKLNWDLHTATPLDFLHIFHAIAVSTRPQLLFSLPKLSPSQHLAVLTKQLLHCMACNQLLQFRGSMLALAMVSLEMEKLIPDWLSLTIELLQKAQMDSSQLIHCRELVAHHLSTLQSSLPLNSVYVYRPLKHTLVTCDKGVFRLHPSSVPGPDFSKDNSKPEVPVRGTAAFYHHLPAASGCKQTSTKRKVEEMEVDDFYDGIKRLYNEDNVSENVGSVCGTDLSRQEGHASPCPPLQPVSVM”, the “soluble on expression in E. coli” value is given as “not soluble”.

With “MKFSVLMSLYIKENPQFLRECFESLVAQTRQADEIVLVFDGVVTPDLEFVVTEFETKLPLKLVKLPQNRGLGKALNEGLLHCDYDWVFRMDTDDICVPDRFEKQVAFIEQHPESIIFGGQIAEFGKNVNDIVAYRNVPTSAQEIIKFTQKRCPFNHMTVAYQKSAVINCGGYEDLQEDYYLWIKLVAQGLYMANLPDILVYARVGNGMVSRRRGVNQAKAEWRLFKLKYRLGIQGLLSGLFTFALRFGSRLLPTSLLKKLYQTFLRK”, the “soluble on expression in E. coli” value is “soluble”.

As for “MKFTETSLKLNPLTEITFFLTFGAKTMSNQWNSGIHDRKLKEEICEIGRRVYNKGFAAANDGNISIRVGENEVLCSPTMICKGFMKPDDICAVDLDGNQIAGTRKRTSEILLHLAIMKERPDVKAVVHCHPPHATAFAVAREPIPQCVLPEVEVFMGEVPMAPYETPGGQKFADTVVPFLKGGTNTIILTGHGTVTFGKSLEDAYWKTEILDAYCNILLLSKQLGRVTYFTENETRELLDLKKKLGFDDPRFHVEDCDLCGNSAFRDGYKEGIPQQKSFEPAPSYPGYLSKPSTQATPATNNGDSDQLIKAITDQVMSALGK”, the “soluble on expression in E. coli” value was “not soluble”.

“MKFYRRIEPIKAMTFDLDDTLYDNHPVIIRMESELLTWLQQTHPAVAHMEKADWLQVKKHVLQQSPDLKSDVTLWRLVQLKHAFLSVGYDEAQAQVAAEEGVQLALEWRSQFDVPQQSL”: the “soluble on expression in E. coli” value is given as “not soluble”.

The record behind these values is the DeepSol protein solubility set.
